In article PMC4791140 (Molecular Biology of the Cell, 2016):

Target: T1, MBP-tagged WHAMM membrane-interaction domain (WMD) (human, UniProt Q8TF30 1-260)
T1 sequence (looked up): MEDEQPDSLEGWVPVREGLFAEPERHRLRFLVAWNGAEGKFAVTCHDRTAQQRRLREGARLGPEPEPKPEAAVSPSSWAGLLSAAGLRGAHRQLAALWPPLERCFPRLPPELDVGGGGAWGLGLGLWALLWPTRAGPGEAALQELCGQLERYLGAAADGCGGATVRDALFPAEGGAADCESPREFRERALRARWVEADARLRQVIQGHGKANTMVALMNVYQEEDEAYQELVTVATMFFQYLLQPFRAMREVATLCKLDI
Assay: pull-down

binding result: binds
B1: GST-Rab1a, membrane-extracted prenylated form (Rab1(M)) (natural protein)
chain: not shown
modifications: prenylated (residues not stated)
